Consider nine molecules from patent US20140271457A1 (AbbVie / Abbott, published 2014).

As a reminder, the Kd is the constant that tells how readily two partners part at equilibrium. For orientation: koff means the rate constant with which the complex falls apart. What is called kon is the rate constant with which the complex forms.

The target in the experiment is Recombinant Human IL-13 (human, UniProt P35225 35-146, limits assumed). Kind of experiment: Biacore SPR. The method, then:
The BIACORE assay (GE, Healthcare Piscataway, N.J.) determined the affinity of antibodies or DVD-Ig with kinetic measurements of on-rate and off-rate constants. Binding of antibodies or DVD-Ig proteins to a target antigen (for example, a purified recombinant target antigen) was determined by surface plasmon resonance-based measurements with a Biacore T200 using running HBS-EP+buffer from GE Healthcare at 25° C. All chemicals were obtained from GE Healthcare or otherwise from a different source as described in the text. For example, approximately 5000 RU of goat anti-mouse IgG, (Fcγ), fragment specific polyclonal antibody (Pierce Biotechnology Inc, Rockford, Ill.) diluted in 10 mM sodium acetate (pH 4.5) was directly immobilized across a CM5 research grade biosensor chip using a standard amine coupling kit according to manufacturer's instructions. Unreacted moieties on the biosensor surface were blocked with ethanolamine. Modified carboxymethyl dextran surface in flowcell 1 was used as a reference surface. Rate constants were derived by making kinetic binding measurements at different antigen concentrations ranging from 0.8-100 nM. Binding was recorded as a function of time and kinetic rate constants were calculated. In this assay, association rate was evaluated for 5 min and dissociation was monitored for 10 min. For kinetic screening analysis, rate equations derived from the 1:1 binding model were fitted simultaneously to association and dissociation phases of all injections (using global fit analysis with Rmax fit locally to account for capture variations) with the use of Biaevaluation software. Purified antibodies or DVD-Ig proteins were diluted in HEPES-buffered saline for capture across goat anti-mouse IgG specific reaction surfaces. Antibodies or DVD-Ig proteins to be captured as a ligand were injected over reaction matrices at a flow rate of 5 μl/minute. The association and dissociation rate constants, kₒₙ (M⁻¹ s⁻¹) and koff (s⁻¹) were determined under a continuous flow rate of 50 μl/minute. Rate constants were derived by making kinetic binding measurements at different antigen concentrations ranging from 0.8-100 nM. Binding was recorded as a function of time and kinetic rate constants were calculated. In this assay, association rate was evaluated for 5 min and dissociation was monitored for 10 min.

Where only a bound is given, the exact number is not on record here.

Recombinant Human IL-13, sequence (P35225 35-146 limits assumed): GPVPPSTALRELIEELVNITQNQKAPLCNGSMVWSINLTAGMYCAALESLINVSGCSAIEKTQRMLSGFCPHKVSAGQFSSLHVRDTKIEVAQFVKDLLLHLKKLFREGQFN

B1: DVD3084 (bispecific antibody, IgG1)
VH: EVQLVESGGGLVQPGGSLRLSCAASGFTFSNYGVTWVRQAPGKGLEWVSMIWADGSTHYASSVKGRFTISRDNSKNTLYLQMNSLRAEDTAVYYCAREWQHGPVAYWGQGTLVTVSSASTKGPEVQLVQSGAEVKKPGASVKVSCKASGYTFTTYGVSWVRQAPGQGLEWMGEIYPGNYNTYYNEKFRGRVTMTTDTSTSTAYMELRSLRSDDTAVYYCARWRTSYFSDYGYFDYWGQGTTVTVSS
VL: DIQMTQSPSSLSASVGDRVTITCRASQLVSSAVAWYQQKPGKAPKLLIYWASARHTGVPSRFSGSGSGTDFTLTISSLQPEDFATYYCQQHYKTPFTFGQGTKLEIKRTVAAPDVVMTQSPLSLPVTLGQPASISCRSSQSLVHSHGNTYLHWYQQRPGQSPRLLIYTVSNRFSGVPDRFSGSGSGTDFTLKISRVEAEDVGVYYCSQSTHVPYTFGGGTKVEIKR
notes: DVD-Ig; wt hIgG1 + kappa constants
Regarding B1, the Kd turned out to be 0.012 nM, the koff worked out at 1.1e-06 s⁻¹ and the kon was determined as 87000 M⁻¹ s⁻¹.

B2: DVD3094 (bispecific antibody, IgG1)
VH: EVQLVESGGGLVQPGGSLRLSCAASGFTFSNYGVEWVRQAPGKGLEWVSGIWADGSTHYADTVKSRFTISRDNSKNTLYLQMNSLRAEDTAVYYCAREWQHGPVAYWGQGTLVTVSSASTKGPEVQLVQSGAEVKKPGASVKVSCKASGYTFTTYGVSWVRQAPGQGLEWMGEIYPGNYNTYYNEKFRGRVTMTTDTSTSTAYMELRSLRSDDTAVYYCARWRTSYFSDYGYFDYWGQGTTVTVSS
VL: DIQMTQSPSSLSASVGDRVTITCKASQLVSSAVAWYQQKPGKAPKLLIYWASTLHTGVPSRFSGSGSGTDFTLTISSLQPEDFATYYCQQHYRTPFTFGQGTKLEIKRTVAAPDVVMTQSPLSLPVTLGQPASISCRSSQSLVHSHGNTYLHWYQQRPGQSPRLLIYTVSNRFSGVPDRFSGSGSGTDFTLKISRVEAEDVGVYYCSQSTHVPYTFGGGTKVEIKR
notes: as for B1
Turning to B2, the Kd was determined as 0.067 nM, the koff was determined as 5.9e-06 s⁻¹ and the association rate constant (kon) was 89000 M⁻¹ s⁻¹.

B3: DVD3083 (bispecific antibody, IgG1)
VH: EVQLVESGGGLVQPGGSLRLSCAASGFTFSNYGVTWVRQAPGKGLEWVSMIWADGSTHYASSVKGRFTISRDNSKNTLYLQMNSLRAEDTAVYYCAREWQHGPVAYWGQGTLVTVSSGGGGSGGGGSEVQLVQSGAEVKKPGASVKVSCKASGYTFTTYGVSWVRQAPGQGLEWMGEIYPGNYNTYYNEKFRGRVTMTTDTSTSTAYMELRSLRSDDTAVYYCARWRTSYFSDYGYFDYWGQGTTVTVSS
VL: DIQMTQSPSSLSASVGDRVTITCRASQLVSSAVAWYQQKPGKAPKLLIYWASARHTGVPSRFSGSGSGTDFTLTISSLQPEDFATYYCQQHYKTPFTFGQGTKLEIKRGGSGGGGSGDVVMTQSPLSLPVTLGQPASISCRSSQSLVHSHGNTYLHWYQQRPGQSPRLLIYTVSNRFSGVPDRFSGSGSGTDFTLKISRVEAEDVGVYYCSQSTHVPYTFGGGTKVEIKR
notes: as for B1
Turning to B3, the Kd stood at 0.038 nM, the dissociation rate constant (koff) is 2e-06 s⁻¹ and the on-rate constant (kon) was 52000 M⁻¹ s⁻¹.

B4: DVD3093 (bispecific antibody, IgG1)
VH: EVQLVESGGGLVQPGGSLRLSCAASGFTFSNYGVEWVRQAPGKGLEWVSGIWADGSTHYADTVKSRFTISRDNSKNTLYLQMNSLRAEDTAVYYCAREWQHGPVAYWGQGTLVTVSSGGGGSGGGGSEVQLVQSGAEVKKPGASVKVSCKASGYTFTTYGVSWVRQAPGQGLEWMGEIYPGNYNTYYNEKFRGRVTMTTDTSTSTAYMELRSLRSDDTAVYYCARWRTSYFSDYGYFDYWGQGTTVTVSS
VL: DIQMTQSPSSLSASVGDRVTITCKASQLVSSAVAWYQQKPGKAPKLLIYWASTLHTGVPSRFSGSGSGTDFTLTISSLQPEDFATYYCQQHYRTPFTFGQGTKLEIKRGGSGGGGSGDVVMTQSPLSLPVTLGQPASISCRSSQSLVHSHGNTYLHWYQQRPGQSPRLLIYTVSNRFSGVPDRFSGSGSGTDFTLKISRVEAEDVGVYYCSQSTHVPYTFGGGTKVEIKR
notes: as for B1
On to B4, for which the Kd is less than 0.02 nM, the koff is less than 1e-06 s⁻¹ and the association rate constant (kon) is 51000 M⁻¹ s⁻¹.

B5: DVD2691 (bispecific antibody, IgG1)
VH: EVTLRESGPGLVKPTQTLTLTCTLYGFSLSTSDMGVDWIRQPPGKGLEWLAHIWWDDVKRYNPALKSRLTISKDTSKNQVVLKLTSVDPVDTATYYCARTVSSGYIYYAMDYWGQGTLVTVSSASTKGPEVQLVESGGGLVQPGGSLRLSCAASGFTFSNYGVTWVRQAPGKGLEWVSMIWADGSTHYASSVKGRFTISRDNSKNTLYLQMNSLRAEDTAVYYCAREWQHGPVAYWGQGTLVTVSS
VL: DIQMTQSPSSLSASVGDRVTISCRASQDIRNYLNWYQQKPGKAPKLLIFYTSKLHSGVPSRFSGSGSGTDYTLTISSLQPEDIATYYCQQGLTPPLTFGGGTKVEIKRTVAAPSVFIFPPDIQMTQSPSSLSASVGDRVTITCRASQLVSSAVAWYQQKPGKAPKLLIYWASARHTGVPSRFSGSGSGTDFTLTISSLQPEDFATYYCQQHYKTPFTFGQGTKLEIKR
notes: as for B1
In the case of B5, the Kd was found to be 0.13 nM, the koff is 0.00013 s⁻¹ and the kon is 950000 M⁻¹ s⁻¹.

B6: DVD3008 (bispecific antibody, IgG1)
VH: EVQLVQSGAEVKKPGASVKVSCKASGYTFNNYGIIWVRQAPGQGLEWMGWINTYTGKPTYAQKFQGRVTMTTDTSTSTAYMELSSLRSEDTAVYYCARKLFNTVAVTDNAMDYWGQGTTVTVSSGGGGSGGGGSEVTLRESGPGLVKPTQTLTLTCTLYGFSLSTSDMGVDWIRQPPGKGLEWLAHIWWDDVKRYNPALKSRLTISKDTSKNQVVLKLTSVDPVDTATYYCARTVSSGYIYYAMDYWGQGTLVTVSS
VL: DIQMTQSPSSLSASVGDRVTITCRASQDIENYLNWYQQKPGKAPKLLIYYTSRLQSGVPSRFSGSGSGTDFTLTISSLQPEDFATYFCQQGNTQPPTFGQGTKLEIKRGGSGGGGSGDIQMTQSPSSLSASVGDRVTISCRASQDIRNYLNWYQQKPGKAPKLLIFYTSKLHSGVPSRFSGSGSGTDYTLTISSLQPEDIATYYCQQGLTPPLTFGGGTKVEIKR
notes: as for B1
For the molecule B6, the Kd was found to be 0.14 nM, the koff turned out to be 1.5e-05 s⁻¹ and the on-rate constant (kon) came out at 110000 M⁻¹ s⁻¹.

B7: DVD3009 (bispecific antibody, IgG1)
VH: EVQLVQSGAEVKKPGASVKVSCKASGYTFNNYGIIWVRQAPGQGLEWMGWINTYTGKPTYAQKFQGRVTMTTDTSTSTAYMELSSLRSEDTAVYYCARKLFNTVAVTDNAMDYWGQGTTVTVSSASTKGPEVTLRESGPGLVKPTQTLTLTCTLYGFSLSTSDMGVDWIRQPPGKGLEWLAHIWWDDVKRYNPALKSRLTISKDTSKNQVVLKLTSVDPVDTATYYCARTVSSGYIYYAMDYWGQGTLVTVSS
VL: DIQMTQSPSSLSASVGDRVTITCRASQDIENYLNWYQQKPGKAPKLLIYYTSRLQSGVPSRFSGSGSGTDFTLTISSLQPEDFATYFCQQGNTQPPTFGQGTKLEIKRTVAAPDIQMTQSPSSLSASVGDRVTISCRASQDIRNYLNWYQQKPGKAPKLLIFYTSKLHSGVPSRFSGSGSGTDYTLTISSLQPEDIATYYCQQGLTPPLTFGGGTKVEIKR
notes: as for B1
As to B7, the Kd was found to be 0.36 nM, the koff worked out at 3.2e-05 s⁻¹ and the kon stood at 87000 M⁻¹ s⁻¹.

B8: DVD2687 (bispecific antibody, IgG1)
VH: EVQLVESGGGLVQPGGSLRLSCAASGFTFSNYGVTWVRQAPGKGLEWVSMIWADGSTHYASSVKGRFTISRDNSKNTLYLQMNSLRAEDTAVYYCAREWQHGPVAYWGQGTLVTVSSASTKGPSVFPLAPEVTLRESGPGLVKPTQTLTLTCTLYGFSLSTSDMGVDWIRQPPGKGLEWLAHIWWDDVKRYNPALKSRLTISKDTSKNQVVLKLTSVDPVDTATYYCARTVSSGYIYYAMDYWGQGTLVTVSS
VL: DIQMTQSPSSLSASVGDRVTITCRASQLVSSAVAWYQQKPGKAPKLLIYWASARHTGVPSRFSGSGSGTDFTLTISSLQPEDFATYYCQQHYKTPFTFGQGTKLEIKRTVAAPDIQMTQSPSSLSASVGDRVTISCRASQDIRNYLNWYQQKPGKAPKLLIFYTSKLHSGVPSRFSGSGSGTDYTLTISSLQPEDIATYYCQQGLTPPLTFGGGTKVEIKR
notes: as for B1
As to B8, the Kd turned out to be 0.47 nM, the koff was determined as 5e-05 s⁻¹ and the kon turned out to be 110000 M⁻¹ s⁻¹.

B9: DVD2737 (bispecific antibody, IgG1)
VH: EVQLVESGGGLVQPGGSLRLSCAASGFTFSNYGVEWVRQAPGKGLEWVSGIWADGSTHYADTVKSRFTISRDNSKNTLYLQMNSLRAEDTAVYYCAREWQHGPVAYWGQGTLVTVSSASTKGPSVFPLAPEVTLRESGPGLVKPTQTLTLTCTLYGFSLSTSDMGVDWIRQPPGKGLEWLAHIWWDDVKRYNPALKSRLTISKDTSKNQVVLKLTSVDPVDTATYYCARTVSSGYIYYAMDYWGQGTLVTVSS
VL: DIQMTQSPSSLSASVGDRVTITCKASQLVSSAVAWYQQKPGKAPKLLIYWASTLHTGVPSRFSGSGSGTDFTLTISSLQPEDFATYYCQQHYRTPFTFGQGTKLEIKRTVAAPDIQMTQSPSSLSASVGDRVTISCRASQDIRNYLNWYQQKPGKAPKLLIFYTSKLHSGVPSRFSGSGSGTDYTLTISSLQPEDIATYYCQQGLTPPLTFGGGTKVEIKR
notes: as for B1
Regarding B9, the Kd came to 0.5 nM, the koff was determined as 6.2e-05 s⁻¹ and the kon was 120000 M⁻¹ s⁻¹.
